Test results taken from publication PMC3930447.

Target: GST-Dip1 (S. pombe) (S. pombe) (UniProt O74771)
Experiment: pull-down

Sequence of UniProt O74771 (O74771 whole entry): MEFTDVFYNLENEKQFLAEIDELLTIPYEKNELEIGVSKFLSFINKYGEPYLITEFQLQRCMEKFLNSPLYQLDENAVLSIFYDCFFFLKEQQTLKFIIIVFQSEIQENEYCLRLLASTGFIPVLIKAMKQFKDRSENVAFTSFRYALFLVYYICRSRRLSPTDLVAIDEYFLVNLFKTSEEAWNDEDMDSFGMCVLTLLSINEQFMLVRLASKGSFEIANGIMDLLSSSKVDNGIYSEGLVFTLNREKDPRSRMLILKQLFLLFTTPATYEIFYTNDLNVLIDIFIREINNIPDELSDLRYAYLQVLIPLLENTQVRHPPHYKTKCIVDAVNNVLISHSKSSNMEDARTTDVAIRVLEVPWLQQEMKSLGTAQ

## S. pombe Arp2/3 complex (from UniProt Q9UUJ1 1-390)
  percent pulled down: 20%
